Laboratory results taken from patent US20260226143A1 (OTHAIR PROTHENA, published 2026).

How the values were obtained:
[1] = target: T1, aggregated Aβ42 (heterogeneous Aβ 42 aggregate mixture) (human); assay: competition ELISA, plate coated with aggregated Aβ42; competitor biotinylated hBP
T1 construct: Aβ 42 vortexed in water and kept on a nutator for 48 h at room temperature, then coated on plates; also called Aβ aggregates; heterogeneous aggregated Aβ42 species
Description: One mg of Aβ 42 was added to 1 ml of diH2O and was vigorously vortexed and placed on a nutator for 48 hours at room temperature. Plates were coated with 0.5 mg/ml of the heterogeneous Aβ 42 aggregate mixture and blocked, e.g., with 1% BSA/PBS. […] 100 ul of GE Streptavidin HRP diluted 1/10,000 was then added and incubated for 30 minutes. Plates were washed six times with TTBS. Thermo Fisher o-phenylenediamine dihydrochloride (OPD) substrate was prepared fresh per manufacturers direction, and 100 μl per well was added. The reaction was incubated for 15 minutes and the reaction stopped with 50 ul 2N H₂SO₄. […] For FIG. 20A and FIG. 20B, curves and resulting IC₅₀ estimations represent nonlinear three-parameter least squares fit of data. Individual points are the average of triplicate samples (coefficient of variation <20%).

soluble Aβ oligomers = soluble Aβ oligomers (human, partly biotinylated (unlabeled, biotinylated or 9:1 unlabeled:biotinylated preparations)); assay: cell-based or functional assay
Chain of soluble Aβ oligomers (human, partly biotinylated (unlabeled, biotinylated or 9:1 unlabeled:biotinylated preparations)) (peptide, as listed by the source): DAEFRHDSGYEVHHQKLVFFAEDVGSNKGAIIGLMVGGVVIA

[2] = target: T2, recombinant Aβ1-42 fibrils (human); assay: direct ELISA on plate-coated Aβ fibrils, antibody titrated
T2 construct: Fibrils made from HFIP-treated Aβ1-42 (DMSO, 10 mM HCl, 37 C, 24 h; pellet resuspended and sonicated); also called fibril Aβ42; fibril Aβ
T2 sequence (peptide, as listed by the source): as above
Description: (§1) Plates were blocked 1% BSA/PBS for 1 hour. […] Plates were washed four times with TBS/Tween 20 and 100 μl of goat anti Human IgG HRP (Jackson ImmunnoResearch Laboratories, Inc, West Grove, PA or Invitrogen, Carlsbad, CA) at 1/5000 dilution was added to each well and incubated 1 hour at room temperature. Plates were wash six times in TBS/Tween 20, and Thermo Fisher o-phenylenediamine dihydrochloride (OPD) tablets and ThermoFisher substrate buffer were prepared per manufacturer's instructions. 100 μl of substrate was added and incubated 15 min. Reaction was stopped with 50 μl H₂SO₄. Plates were read at 490 nm on a molecular devices spectromax. FIG. 9A, and FIG. 21. For FIG. 21, curves and resulting EC₅₀ estimations represent nonlinear three-parameter least squares fit of the data (data shown in Table 7).

[3] = target: T2, recombinant Aβ1-42 fibrils; assay: direct ELISA on plate-coated Aβ fibrils; the low end falls to h2831 by the EC50 values of Table 7
Description: as §1

[4] = target: T2, recombinant Aβ1-42 fibrils; assay: direct ELISA, fibril Abeta plate coat titrated, antibody held constant at 2 ug/ml; unit from the axis 'log ng/ml Abeta' [right panel]
Description: Plates were blocked 1% BSA/PBS 1 hour. Antibodies at 2 μg/ml in 0.1% BSA/PBS 0.1% Tween 20 were added in duplicate to the appropriate wells and incubated for 2 hrs at room temperature. Plates were washed 4× with TBS/Tween 20 and then 100 μl of Jackson Goat anti Human IgG HRP 1/5000 dilution was added to each well and incubated 1 hour at room temperature. Plates were wash six times in TBS/Tween 20, and Thermo Fisher o-phenylenediamine dihydrochloride (OPD) tablets and Thermofisher substrate buffer were prepared per manufacturer's instructions. 100 μl of substrate was and incubated 15 min. Reaction was stopped with 50 μl H₂SO₄. Plates were read at 490 nm on a molecular devices spectromax. FIG. 9B, right panel.

[5] = target: T2, recombinant Aβ1-42 fibrils; assay: direct ELISA on plate-coated Aβ fibrils; the high end falls to h2726 by the EC50 values of Table 7
Description: as §1

T1 sequence (peptide, as listed by the source): as above

| Binder | IC50 [1] [µg/mL] | IC50 of the reduction of Abeta spots per neuron (% Abeta control, normalized to untreated Abeta) (soluble Aβ oligomers) [µg/mL] | EC50 [2] [µg/mL] | fold lower estimated EC50 than aducanumab [3] [fold] | Total Area (area under the curve of % Abeta control against mAb concentration) (soluble Aβ oligomers) | IC50 (as headed in the table; half-maximal concentration of the Abeta fibril coat) [4] [µg/mL] | fold lower estimated EC50 than aducanumab [5] [fold] |
| --- | --- | --- | --- | --- | --- | --- | --- |
| h2731 (antibody, human IgG1, kappa, V domains shown, Heavy chain with or without the C-terminal lysine) VH: EVQLLESGGGLVQPGGSLRLSCAASGFTFSNYGMSWVRQAPGKGLEWVASIRSGSGRTYYSDNVKGRFTISRDNSKNTLYLQMNSLRAEDTAVYYCVRYDHYSGSSDYWGQGTLVTVSS VL: DVVMTQSPLSLPVTLGEPASISCKSSQSLLDYDGKTYLNWLLQKPGQSPQRLIYRVTNRDTGVPDRFSGSGSGTDFTLKISRVEAEDVGVYYCWQGTHFPRSFGQGTKVEIKR | 5.02 | 0.47 | 0.0367 | – | – | – | – |
| h2831 (antibody, V domains shown, Humanized IgG; only variable domains tied to the name; also called PB-0575) VH: EVQLLESGGGLVQPGGSLRLSCAASGFTFSNFGMSWVRQAPGKGLEWVASVRSGSGRTYYSDNVKGRFTISRDNSKNTLYLQMNSLRAEDTAVYYCVRYDHYSGTSDYWGQGTLVTVSS VL: DVVMTQSPLSLPVTLGEPASISCKSSQSLLDYDGKTYLNWLLQKPGQSPQRLIYRVTNRDTGVPDRFSGSGSGTDFTLKISRVEAEDVGVYYCWQGTHFPRSFGQGTKVEIK | 9.91 | 0.924 | 0.0489 | 15 to 20 | 6500 | 0.412 | – |
| h2931 (antibody, V domains shown, Humanized IgG; only variable domains tied to the name; also called PB-0576) VH: EVQLLESGGGLVQPGGSLRLSCAASGFTFSNFGMSWVRQAPGKGLEWVASVRSGSGRTYYSDNVKGRFTISRDNSKNTLYLQMNSLRAEDTAVYYCVRYDHYTGTSDYWGQGTLVTVSS VL: DVVMTQSPLSLPVTLGEPASISCKSSQSLLDYDGKTYLNWLLQKPGQSPQRLIYRVTNRDTGVPDRFSGSGSGTDFTLKISRVEAEDVGVYYCWQGTHFPRSFGQGTKVEIK | 6.9 | 0.627 | 0.0449 | – | 8480 | 0.335 | – |
| h2726 (antibody, V domains shown, Humanized IgG; also called PB-0573) VH: EVQLLESGGGLVQPGGSLRLSCAASGFTFSNYGMSWVRQAPGKGLEWVASIRSGSGRTYYSDNVKGRFTISRDNSKNTLYLQMNSLRAEDTAVYYCVRYDHYSGSSDYWGQGTLVTVSS VL: DVVMTQSPLSLPVTPGEPASISCKSSQSLLDYDGKTYLNWLLQKPGQSPQRLIYKVSNRDSGVPDRFSGSGSGTDFTLKISRVEAEDVGVYYCWQGTHFPRTFGQGTKVEIK | 9.05 | 1.67 | 0.0359 | – | 9070 | 0.387 | 15 to 20 |
